One sequence from PMC12781872 can be followed below.

What all share (assay): FRET
Series [1] deals with RNAP core beta' D359AzF Dylight488;sigmaA rpoC:D359 (Mycobacterium tuberculosis;Mycobacterium tuberculosis) (UniProt P9WGZ1+P9WGZ1+P9WGY9+P9WGY7+P9WGY5+P9WGI1).
Series [2] concerns the target RNAP core beta' D359AzF Dylight488;sigmaE rpoC:D359 (Mycobacterium tuberculosis;Mycobacterium tuberculosis) (UniProt P9WGZ1+P9WGZ1+P9WGY9+P9WGY7+P9WGY5+P9WGG7).
Series [3] concerns the target RNAP core beta' D359AzF Dylight488;sigmaF rpoC:D359 (Mycobacterium tuberculosis;Mycobacterium tuberculosis) (UniProt P9WGZ1+P9WGZ1+P9WGY9+P9WGY7+P9WGY5+P9WGI3).

As usually defined, the Kd is the free concentration of one partner at which half of the binding sites on the other are occupied at equilibrium, for simple one-to-one binding. The low end stands for tighter binding, the high end for weaker binding. Take “GTGGCCCTTGTGGGAGCGTCGGCCATAGCGGCCTCCCGGTCGGCTTGCGCTG / CAGCGCAAGCCGACCGGGAGGCCGCTATGGCCGACGCTCCCACAAGGGCCAC / UUUUUUUCCGCUAUG”: the dissociation constant Kd stood at 162 nM in series [1], 335 nM in series [2] and 21.1 nM in series [3].
